Results from article PMC5457521 (Nature Communications, 2017).

B1: anti-EDE2 mAb 747(4)A11, human IgG (antibody, V domains shown)
VH: EVQLVESGGGLVRPGGSLRLSCAASGFSYSNHWMHWVRQAPGKGLVWVSRINSDGSTRNYADFVKGRFTISRDNAENTLYLEMNSLTADDTAVYYCVRDGVRFYYDSTGYYPDSFFKYGMDVWGQGTTVTVSS
VL: QSVLTQPVSVSGSPGQSITISCTGTSSNADTYNLVSWYQQRPGKAPKLMIYEGTKRPSGVSNRFSASKSATAASLTISGLQPEDEADYYCCSYATSRTLVFGGGTKLTVV
B2: anti-EDE2 Fab A11 (Fab of human mAb 747(4)A11) (Fab, V domains shown)
VH: EVQLVESGGGLVRPGGSLRLSCAASGFSYSNHWMHWVRQAPGKGLVWVSRINSDGSTRNYADFVKGRFTISRDNAENTLYLEMNSLTADDTAVYYCVRDGVRFYYDSTGYYPDSFFKYGMDVWGQGTTVTVSS
VL: QSVLTQPVSVSGSPGQSITISCTGTSSNADTYNLVSWYQQRPGKAPKLMIYEGTKRPSGVSNRFSASKSATAASLTISGLQPEDEADYYCCSYATSRTLVFGGGTKLTVV
B3: anti-EDE2 mAb 747(4)B7, human IgG (antibody, V domains shown)
VH: EVQLVESGGGLVQPGGSLKLSCAASGFTFSSHWMHWVRQAPGKGLVWVSRTNSDGSSTSYADSVKGRFMISRDNSKNTVYLHMNGLRAEDTAVYFCARDGVRYYYDSTGYYPDNFFQYGLDVWGQGTTVTVSS
VL: QSALTQPASVSGSPGQSITISCTGISSDVETYNLVSWYEQHPGKAPKLIIYEASKRPSGVSNRFSGSKSGNTASLAISGLQAEDEADYYCCSYAGGKSLVFGGGTRLTVL

Key:
[1] = target: T1, DENV2 sE strain FGA02, wild type (recombinant E ectodomain) (Dengue virus 2, strain FGA-02 …, strain); experiment: ELISA; capture ELISA: mAb coated at 5 μg ml^−1 on MAXISORP plates; serial dilutions of Strep-tagged sE in solution; ALP-labelled Strep-Tactin; conditions: one partner purified
T1 construct: also called sE WT; DENV2 FGA02 WT

[2] = target: T1, DENV2 sE strain FGA02, wild type …; experiment: SEC-MALS; mixture of 150 μg DENV2 FGA02 sE with 300 μg Fab, Superdex 200 10/300 GL, run in a similar manner as sE alone; conditions: both partners purified

Binder	binding result [1]	binding result [2]
B1	binds	
B2		binds
B3	binds	
